Assay results: US20260167712A1, “INHIBITORY ANTIBODIES AGAINST GLUT1” (ICOSAGEN CELL FACTORY OÜ, priority 2022, published 2026)
“Also recorded” adds a separate entry of the source.

Experiments:
SLC2A4 pseudotyped VLPs [1] = biological target: T1, SLC2A4 pseudotyped VLPs (UniProt P14672 1-509); assay: ELISA on VLPs coated at 5 ug/mL, compared with MOCK VLPs
T1 construct: also called SLC2A4 VLPs; GLUT4
T1 sequence: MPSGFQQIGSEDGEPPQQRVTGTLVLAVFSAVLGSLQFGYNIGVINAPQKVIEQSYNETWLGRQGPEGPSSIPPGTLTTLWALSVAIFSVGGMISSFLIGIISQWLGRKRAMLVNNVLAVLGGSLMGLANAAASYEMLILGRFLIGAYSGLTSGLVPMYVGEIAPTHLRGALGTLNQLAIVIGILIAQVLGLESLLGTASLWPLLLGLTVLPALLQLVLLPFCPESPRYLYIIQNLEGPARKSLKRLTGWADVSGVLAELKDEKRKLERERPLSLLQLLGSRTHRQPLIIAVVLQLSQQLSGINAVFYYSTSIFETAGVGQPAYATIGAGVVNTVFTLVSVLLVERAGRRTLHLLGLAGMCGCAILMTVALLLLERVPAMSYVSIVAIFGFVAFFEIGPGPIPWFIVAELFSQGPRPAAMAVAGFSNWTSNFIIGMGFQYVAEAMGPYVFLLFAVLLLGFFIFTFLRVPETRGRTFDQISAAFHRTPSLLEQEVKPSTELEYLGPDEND

SLC2A4 pseudotyped VLPs [2] = biological target: T2, SLC2A4 pseudotyped VLPs (Homo sapiens, UniProt P14672); assay: ELISA-based VLP binding assay, SLC2A4; settings: compared to MOCK VLPs, FIG. 3
T2 sequence (P14672 1-509): T1 sequence
Protocol: (§1) An ELISA-based VLP binding assay was carried out to compare the EC50 values of antibody clones (FIG. 1). Similarly, ELISA based VLP binding assay was performed to compare the binding of the antibodies to different glucose transporters (FIG. 3). MaxiSorp™ high-capacity binding ELISA plate (Thermo Fisher Scientific, US) were coated with 5 μg/mL SLC2A1, SLC2A2, SLC2A3, SLC2A4 pseudotyped VLPs or MOCK VLPs in PBS overnight. The plate was washed and blocked for 1 h with 0.05% Tween 20, 2% BSA in PBS. Serial dilutions of antibodies were incubated on a washed plate for 1 hour, followed by a 1-hour incubation with goat anti-human IgG horse radish peroxidase (HRP) conjugated (Invitrogen) antibody. TMB (3,3′,5,5′-Tetramethylbenzidine) Solution VII (Biopanda Diagnostics) was used as a substrate for HRP and 0.5 M H2SO4 was used as stop solution. After every step, the wells were washed with 0.05% Tween 20, 0.1% Proclin 300 PBS solution. Absorption at 450 nm was measured with Thermo Scientific™ Multiskan™ FC Microplate Photometer. Exemplary wise used antibodies 1G2 #9, 2A2 #12, 2E5 #22, 5G5 #30, 6F12 #33, 7C3 #39 all bound SLC2A1 VLPs with low nanomolar EC50 values (FIG. 1).

[3] = biological target: T3, HEK-293-ALL cells transfected with human SLC2A1 (Homo sapiens, UniProt P11166); assay: 2-Deoxyglucose uptake assay (Glucose Uptake-Glo); format: cell-based; settings: 2-hour incubation, 0.35 nM to 6.89 μM, 1 mM 2DG for 20 min, FIG. 4
T3 construct: expressed in transfected cells; host or cells: HEK-293-ALL
T3 sequence (P11166 1-492): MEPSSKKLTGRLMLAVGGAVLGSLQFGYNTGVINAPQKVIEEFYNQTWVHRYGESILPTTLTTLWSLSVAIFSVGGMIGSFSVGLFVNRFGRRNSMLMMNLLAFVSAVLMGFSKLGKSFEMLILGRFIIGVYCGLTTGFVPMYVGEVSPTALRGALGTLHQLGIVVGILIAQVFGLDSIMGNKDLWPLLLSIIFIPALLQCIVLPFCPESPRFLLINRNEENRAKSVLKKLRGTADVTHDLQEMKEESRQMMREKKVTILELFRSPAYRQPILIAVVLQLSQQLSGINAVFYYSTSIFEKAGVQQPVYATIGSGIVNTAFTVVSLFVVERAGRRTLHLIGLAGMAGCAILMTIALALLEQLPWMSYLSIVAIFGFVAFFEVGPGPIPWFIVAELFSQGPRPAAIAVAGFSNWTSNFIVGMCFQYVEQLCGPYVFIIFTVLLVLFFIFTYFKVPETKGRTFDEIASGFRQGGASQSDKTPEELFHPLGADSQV
Protocol: To evaluate if the described anti-SLC2A1 antibodies inhibit glucose uptake, a commercial Glucose Uptake-Glo Assay kit (Promega) was utilized according to manufacturer's instructions. In short, HEK-293-ALL cells were transfected with human SLC2A1 expression plasmid and were incubated at 37° C. overnight in the presence of 5% CO2. Cells were washed with 0.5% BSA PBS twice and 7000 cells were plated per well into white clear bottom 96-well plates in 0.5% BSA PBS in the presence of 0.35 nM to 6.89 μM anti-SLC2A1 antibodies or glucose uptake inhibitor BAY-876 (CaymanChem). Cells were incubated for 2 hours at room temperature. Glucose uptake was initiated by the addition of 1 mM 2-deoxyglucose (2DG) and was allowed to proceed for 20 min at 37° C. in the presence of 5% CO2. After adding STOP and neutralization reagents included in the kit, luminescence was measured using GloMax Explorer microplate reader (Promega). Nonspecific luminescence was measured in lysates from cells without (2DG) being added. Data was normalized to nonspecific luminescence and to the average value of luminescence in the presence of no inhibitors.

SLC2A1 pseudotyped VLPs [4] = biological target: T4, SLC2A1 pseudotyped VLPs (Homo sapiens, UniProt P11166); assay: ELISA-based SLC2A1 VLP binding assay; settings: 5 μg/mL VLP coating, FIG. 1
T4 sequence (P11166 1-492): T3 sequence (P11166 1-492)
Protocol: as §1

SLC2A1 pseudotyped VLPs [5] = biological target: T5, SLC2A1 pseudotyped VLPs (UniProt P11166 1-492); assay: ELISA
T5 chain: T3 sequence (P11166 1-492)

SLC2A3 pseudotyped VLPs = biological target: T6, SLC2A3 pseudotyped VLPs (Homo sapiens, UniProt P11169); assay: ELISA-based VLP binding assay, SLC2A3; settings: compared to MOCK VLPs, FIG. 3
T6 sequence (P11169 1-496): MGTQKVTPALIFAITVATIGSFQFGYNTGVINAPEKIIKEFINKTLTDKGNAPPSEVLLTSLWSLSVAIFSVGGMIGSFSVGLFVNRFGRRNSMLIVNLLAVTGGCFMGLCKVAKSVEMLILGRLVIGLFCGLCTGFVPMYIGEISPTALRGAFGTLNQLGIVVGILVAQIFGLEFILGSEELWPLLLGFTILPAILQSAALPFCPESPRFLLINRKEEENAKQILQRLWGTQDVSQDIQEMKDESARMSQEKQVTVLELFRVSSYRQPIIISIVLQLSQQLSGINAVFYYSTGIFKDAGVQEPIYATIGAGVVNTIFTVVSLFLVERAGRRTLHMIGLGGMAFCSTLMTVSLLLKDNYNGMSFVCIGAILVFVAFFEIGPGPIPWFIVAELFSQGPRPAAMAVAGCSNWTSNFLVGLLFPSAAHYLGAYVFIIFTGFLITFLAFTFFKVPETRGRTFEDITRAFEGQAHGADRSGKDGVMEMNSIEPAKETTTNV
Protocol: as §1

B1: 2E5 #22 (antibody, V domains shown)
VH: AVTLDESGGGLQTPGGALSLVCKASGFTFSTKGMGWVRQTPGKGLEWVAGISSMRRYTYYAPAVKGRATISRDNGQSTVRLQLSSLRAEDSGTYYCARDATYCSWTTSTCGWSGGTIDAWGHGTEVIVSS
VL: ALTQPSSVSANLGGTVKITCSGGSGNYGWYQQKSPGSVPVTVIYSNDKRPSDIPSRFSGSGSGSTATLTITGVQVEDEAVYFCGSRDSSYVGLFGAGTTLTVL
- binding result (SLC2A4 pseudotyped VLPs [1]): no binding
- binding to SLC2A4 VLPs (SLC2A4 pseudotyped VLPs [2]): did not bind; also recorded: Some binding
- glucose (2-deoxyglucose) uptake [3]: strong concentration dependent decrease
- EC50 of binding to SLC2A1 VLPs (SLC2A1 pseudotyped VLPs [4]): low nanomolar
- EC50 (SLC2A1 pseudotyped VLPs [5]): 0.5 nM
- binding to SLC2A3 VLPs (SLC2A3 pseudotyped VLPs): did not bind; also recorded: Some binding

B2: 6F12 #33 (antibody, V domains shown)
VH: AVTLDESGGGLQTPGGALSLVCKASGFTFSDHAIFWVRQAPDKGLEFVAAISSGTGSWTAYATVVKGRATISRDNGQSTVRLQLNNLRAADTATYYCAKGAGSACCYAGSIDAWGHGTEVIVSS
VL: ALTQPSSVSANPGETVKITCSGGSSSSYYGWYQQKSPGSAPVTLIYYNDKRPSDIPSRFSGSKSGSTATLTITGVQVEDEAVYYCGTGDGSFAIFGAGTTLTVL
- binding result (SLC2A4 pseudotyped VLPs [1]): no binding
- binding to SLC2A4 VLPs (SLC2A4 pseudotyped VLPs [2]): did not bind
- glucose (2-deoxyglucose) uptake [3]: strong concentration dependent decrease
- EC50 of binding to SLC2A1 VLPs (SLC2A1 pseudotyped VLPs [4]): low nanomolar
- EC50 (SLC2A1 pseudotyped VLPs [5]): 0.6 nM
- binding to SLC2A3 VLPs (SLC2A3 pseudotyped VLPs): did not bind
